From the supplement of paper PMC9112550, “Optimization of the antimicrobial peptide Bac7 by deep mutational scanning” (BMC Biology, 2022)

System: Escherichia coli TOP10
Assay: shrunken log2 fold change of peptide-encoding DNA abundance (4.5 h post-induction vs induction); higher = less antimicrobial activity (less host growth inhibition)
Conditions: time post-induction: 4.5 h; library: site-saturation at positions 5, 18, 19, 20
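Note: peptides expressed intracellularly from a pBAD plasmid library in pooled LB shake-flask culture, induced with 0.3% L-arabinose, DNA abundance read by NGS, three biological replicates, DESeq2 with apeglm shrinkage.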

How did the “shrunken log2 fold change” value turn out when RRIRPRPPRLPRPRPRPRCMPRP was run?
The value was 0.0856.

For RRIRPRPPRLPRPRPRPRCQPRP, which “shrunken log2 fold change” value is on record?
Its value is 0.273.

RRIRPRPPRLPRPRPRPRDKPRP was tested. Which “shrunken log2 fold change” value did it give?
The value was 0.144.

RRIRPRPPRLPRPRPRPREFPRP was tested. Which “shrunken log2 fold change” value did it give?
Its value is 0.485.

With RRIRPRPPRLPRPRPRPREGPRP as the sequence, how does the “shrunken log2 fold change” value read?
The value was 0.891.

With RRIRPRPPRLPRPRPRPRGRPRP as the sequence, how does the “shrunken log2 fold change” value read?
The value was 0.713.

With RRIRPRPPRLPRPRPRPRHHPRP as the sequence, how does the “shrunken log2 fold change” value read?
Its value is -0.0806.

RRIRPRPPRLPRPRPRPRHMPRP was tested. Which “shrunken log2 fold change” value did it give?
Its value is 0.116.

For RRIRPRPPRLPRPRPRPRINPRP, which “shrunken log2 fold change” value is on record?
Its value is -0.16.

RRIRPRPPRLPRPRPRPRIQPRP was tested. Which “shrunken log2 fold change” value did it give?
Its value is 0.389.

With RRIRPRPPRLPRPRPRPRKAPRP as the sequence, how does the “shrunken log2 fold change” value read?
Its value is 0.0787.

Which “shrunken log2 fold change” value does the source give for RRIRPRPPRLPRPRPRPRKRPRP here?
The value was 0.198.

RRIRPRPPRLPRPRPRPRLIPRP was tested. Which “shrunken log2 fold change” value did it give?
The value was 0.292.

For RRIRPRPPRLPRPRPRPRLQPRP, which “shrunken log2 fold change” value is on record?
The value was 0.176.

With RRIRPRPPRLPRPRPRPRMAPRP as the sequence, how does the “shrunken log2 fold change” value read?
The value was 0.278.

How did the “shrunken log2 fold change” value turn out when RRIRPRPPRLPRPRPRPRNFPRP was run?
Its value is 0.192.

For RRIRPRPPRLPRPRPRPRNGPRP, which “shrunken log2 fold change” value is on record?
Its value is -0.0237.

RRIRPRPPRLPRPRPRPRNTPRP was tested. Which “shrunken log2 fold change” value did it give?
The value was 1.19.

Which “shrunken log2 fold change” value does the source give for RRIRPRPPRLPRPRPRPRPVPRP here?
The value was 0.528.

RRIRPRPPRLPRPRPRPRRNPRP was tested. Which “shrunken log2 fold change” value did it give?
The value was -0.0266.

Which “shrunken log2 fold change” value does the source give for RRIRPRPPRLPRPRPRPRSHPRP here?
Its value is 0.16.

Which “shrunken log2 fold change” value does the source give for RRIRPRPPRLPRPRPRPRSPPRP here?
The value was 0.592.

Which “shrunken log2 fold change” value does the source give for RRIRPRPPRLPRPRPRPRVGPRP here?
The value was 0.543.

RRIRPRPPRLPRPRPRPRWKPRP was tested. Which “shrunken log2 fold change” value did it give?
Its value is 0.176.

Which “shrunken log2 fold change” value does the source give for RRIRPRPPRLPRPRPRPRWWPRP here?
The value was 0.0553.

For RRIRPRPPRLPRPRPRPRYNPRP, which “shrunken log2 fold change” value is on record?
The value was -0.522.

For RRIRPRPPRLPRPRPRPRYVPRP, which “shrunken log2 fold change” value is on record?
The value was -0.24.

For RRIRPRPPRLPRPRPRPSARPRP, which “shrunken log2 fold change” value is on record?
Its value is 0.186.

For RRIRPRPPRLPRPRPRPSAVPRP, which “shrunken log2 fold change” value is on record?
The value was 0.0719.

With RRIRPRPPRLPRPRPRPSCEPRP as the sequence, how does the “shrunken log2 fold change” value read?
Its value is -0.386.

RRIRPRPPRLPRPRPRPSCHPRP was tested. Which “shrunken log2 fold change” value did it give?
The value was -0.31.

RRIRPRPPRLPRPRPRPSDDPRP was tested. Which “shrunken log2 fold change” value did it give?
Its value is -0.0663.

With RRIRPRPPRLPRPRPRPSEMPRP as the sequence, how does the “shrunken log2 fold change” value read?
Its value is -0.216.

Which “shrunken log2 fold change” value does the source give for RRIRPRPPRLPRPRPRPSFLPRP here?
Its value is -0.271.

How did the “shrunken log2 fold change” value turn out when RRIRPRPPRLPRPRPRPSFMPRP was run?
The value was -0.377.

RRIRPRPPRLPRPRPRPSFRPRP was tested. Which “shrunken log2 fold change” value did it give?
Its value is -0.142.

Which “shrunken log2 fold change” value does the source give for RRIRPRPPRLPRPRPRPSGRPRP here?
Its value is 0.0933.

How did the “shrunken log2 fold change” value turn out when RRIRPRPPRLPRPRPRPSHFPRP was run?
The value was -0.399.

With RRIRPRPPRLPRPRPRPSHVPRP as the sequence, how does the “shrunken log2 fold change” value read?
Its value is -0.544.

Which “shrunken log2 fold change” value does the source give for RRIRPRPPRLPRPRPRPSIKPRP here?
Its value is -0.33.

With RRIRPRPPRLPRPRPRPSIMPRP as the sequence, how does the “shrunken log2 fold change” value read?
The value was -0.552.

How did the “shrunken log2 fold change” value turn out when RRIRPRPPRLPRPRPRPSIYPRP was run?
Its value is -0.584.

With RRIRPRPPRLPRPRPRPSKYPRP as the sequence, how does the “shrunken log2 fold change” value read?
Its value is -0.528.

With RRIRPRPPRLPRPRPRPSLFPRP as the sequence, how does the “shrunken log2 fold change” value read?
The value was -0.344.

Which “shrunken log2 fold change” value does the source give for RRIRPRPPRLPRPRPRPSLWPRP here?
Its value is 0.471.

With RRIRPRPPRLPRPRPRPSMLPRP as the sequence, how does the “shrunken log2 fold change” value read?
Its value is -0.186.

For RRIRPRPPRLPRPRPRPSMRPRP, which “shrunken log2 fold change” value is on record?
The value was 0.501.

Which “shrunken log2 fold change” value does the source give for RRIRPRPPRLPRPRPRPSNGPRP here?
The value was -0.113.

Which “shrunken log2 fold change” value does the source give for RRIRPRPPRLPRPRPRPSPMPRP here?
The value was -0.259.

How did the “shrunken log2 fold change” value turn out when RRIRPRPPRLPRPRPRPSPRPRP was run?
The value was 0.633.

RRIRPRPPRLPRPRPRPSPYPRP was tested. Which “shrunken log2 fold change” value did it give?
Its value is -0.461.

Which “shrunken log2 fold change” value does the source give for RRIRPRPPRLPRPRPRPSQNPRP here?
Its value is -0.107.

For RRIRPRPPRLPRPRPRPSRLPRP, which “shrunken log2 fold change” value is on record?
Its value is -0.0839.

How did the “shrunken log2 fold change” value turn out when RRIRPRPPRLPRPRPRPSTFPRP was run?
The value was 0.147.

For RRIRPRPPRLPRPRPRPSTRPRP, which “shrunken log2 fold change” value is on record?
The value was -0.0318.

How did the “shrunken log2 fold change” value turn out when RRIRPRPPRLPRPRPRPSTWPRP was run?
The value was 0.0689.

RRIRPRPPRLPRPRPRPSYMPRP was tested. Which “shrunken log2 fold change” value did it give?
Its value is -0.962.

RRIRPRPPRLPRPRPRPSYVPRP was tested. Which “shrunken log2 fold change” value did it give?
The value was -0.127.

How did the “shrunken log2 fold change” value turn out when RRIRPRPPRLPRPRPRPTAPPRP was run?
The value was 0.528.

For RRIRPRPPRLPRPRPRPTAVPRP, which “shrunken log2 fold change” value is on record?
Its value is 0.362.

How did the “shrunken log2 fold change” value turn out when RRIRPRPPRLPRPRPRPTCWPRP was run?
Its value is 0.349.

Which “shrunken log2 fold change” value does the source give for RRIRPRPPRLPRPRPRPTDEPRP here?
Its value is -0.128.

Which “shrunken log2 fold change” value does the source give for RRIRPRPPRLPRPRPRPTDGPRP here?
Its value is -0.0563.

How did the “shrunken log2 fold change” value turn out when RRIRPRPPRLPRPRPRPTFGPRP was run?
Its value is 0.191.

RRIRPRPPRLPRPRPRPTHIPRP was tested. Which “shrunken log2 fold change” value did it give?
Its value is 0.0811.

With RRIRPRPPRLPRPRPRPTHYPRP as the sequence, how does the “shrunken log2 fold change” value read?
The value was 0.206.

How did the “shrunken log2 fold change” value turn out when RRIRPRPPRLPRPRPRPTITPRP was run?
The value was -0.347.

For RRIRPRPPRLPRPRPRPTKCPRP, which “shrunken log2 fold change” value is on record?
The value was -0.0849.

For RRIRPRPPRLPRPRPRPTKLPRP, which “shrunken log2 fold change” value is on record?
The value was -0.0235.

For RRIRPRPPRLPRPRPRPTKRPRP, which “shrunken log2 fold change” value is on record?
Its value is 0.265.

With RRIRPRPPRLPRPRPRPTLEPRP as the sequence, how does the “shrunken log2 fold change” value read?
Its value is 0.393.

With RRIRPRPPRLPRPRPRPTLHPRP as the sequence, how does the “shrunken log2 fold change” value read?
Its value is 0.0853.

For RRIRPRPPRLPRPRPRPTMVPRP, which “shrunken log2 fold change” value is on record?
Its value is -0.0466.

With RRIRPRPPRLPRPRPRPTNGPRP as the sequence, how does the “shrunken log2 fold change” value read?
The value was 0.191.

RRIRPRPPRLPRPRPRPTPRPRP was tested. Which “shrunken log2 fold change” value did it give?
The value was 0.769.
